Source: patent US5821046A, “RNA oligonucleotides that bind HIV tat protein” (RiboTargets Holdings PLC, priority 1990, dated 1998)

Key:
[1] = molecular target: T1, HIV-1 Tat (Human immunodeficiency virus 1, UniProt P04608 P04608:1-86); test: filter; UCU bulge indistinguishable from UUU; settings: stem-loop with bulge
[2] = molecular target: T1, HIV-1 Tat; test: filter; D1/2 76 nM; compensatory mutation restores binding; settings: stem-loop with bulge
[3] = molecular target: T1, HIV-1 Tat; test: filter; D1/2 680 nM; no complex in EMSA; settings: stem-loop, upper stem disrupted
[4] = molecular target: T1, HIV-1 Tat; test: filter; D1/2 66 nM; complex in EMSA; settings: stem-loop with bulge
[5] = molecular target: T1, HIV-1 Tat; test: competition; D1/2 vs 10 nM 59-mer probe (59-mer 40 nM); 60 nM vs 29-mer probe; settings: hairpin with U-rich bulge and loop
[6] = molecular target: T1, HIV-1 Tat; test: filter; D1/2 160 nM; about 2.5-fold lower affinity; complex in EMSA; settings: stem-loop with 2-nt bulge
[7] = molecular target: T1, HIV-1 Tat; test: filter; no complex in EMSA; settings: stem-loop
[8] = tested on: Rev; settings: references 33, 34; read-out: Kd of Rev-RRE complex; cited from earlier work
[9] = molecular target: T1, HIV-1 Tat; test: filter; D1/2 420 nM in table (290 nM in text); no complex in EMSA; settings: stem-loop without bulge
[10] = molecular target: T1, HIV-1 Tat; test: competition; D1/2; 18+15 duplex probe; 59-mer 18 nM; settings: duplex with UUU bulge, no apical loop
[11] = molecular target: T1, HIV-1 Tat; test: competition; D1/2; unmodified 18+15 duplex 65 nM; 59-mer 18 nM; settings: duplex with bulge

B1: HIV-1 TAR RNA (UCU bulge) (ssRNA)
RNA: GGGUCUCUCUGGUUAGACCAGAUCUGAGCCUGGGAGCUCUCUGGCUAACUAGGGAACCC
modifications: [24]
Kd [1]: 12 nM

B2: TAR G28 to C28; C37 to G37 (ssRNA)
RNA: GGGUCUCUCUGGUUAGACCAGAUUUGACCCUGGGAGGUCUCUGGCUAACUAGGGAACCC
Kd [2]: 24 nM

B3: TAR G28 to C28 (ssRNA)
RNA: GGGUCUCUCUGGUUAGACCAGAUUUGACCCUGGGAGCUCUCUGGCUAACUAGGGAACCC
Kd [3]: > 100 nM

B4: TAR G to U (loop) (ssRNA)
RNA: GGGUCUCUCUGGUUAGACCAGAUUUGAGCCUUUUAGCUCUCUGGCUAACUAGGGAACCC
Kd [4]: 25 nM

B5: 29-mer top part of TAR (ssRNA)
RNA: GCCAGAUUUGAGCCUGGGAGCUCUCUGGC
IC50 [5]: 100 nM

B6: HIV-2 TAR RNA first stem-loop (ssRNA)
RNA: CUGCGGAGAGGCUGGCAGAUUGAGCCCUGGGAGGUUCUCUCCAGCACUAGCAG
Kd [6]: 30 nM

B7: Antisense TAR (ssRNA)
RNA: GGGUUCCCUAGUUAGCCAGAGAGCUCCCAGGCUCAAAUCUGGUCUAACCAGAGAGACCC
Kd [7]: > 140 nM

B8: RRE: rev-responsive element, 243-nucleotide long sequence within the env gene (nucleic acid)
chain: CAGUGGGAAUAGGAGCUUUGUUCCUUGGGUUCUUGGGAGCAGCAGGAAGCACUAUGGGCGCAGCGUCAAUGACGCUGACGGUACAGGCCAGACAAUUAUUGUCUGGUAUAGUGCAGCAGCAGAACAAUUUGCUGAGGGCUAUUGAGGCGCAACAGCAUCUGUUGCAACUCAAGUCUGGGGCAUCAAGCAGCUCCAGGCAAGAAUCCUGGCUGUGGAAAGAUACCUAAAGGAUCAACAGCUCCU
Kd [8]: 3 nM

B9: TAR delta U (bulge) (ssRNA)
RNA: GGGUCUCUCUGGUUAGACCAGAGAGCCUGGGAGCUCUCUGGCUAACUAGGGAACCC
Kd [9]: > 70 nM

B10: 18-mer + 15-mer TAR duplex (dsRNA)
RNA 1: AGCCAGAUUUGAGCAGCU
RNA 2: AGCUGCUCUCUGGCU
IC50 [10]: 65 nM

B11: 18+15 duplex 4-thioT-25 (dsRNA)
RNA 1: AGCCAGAUUTGAGCAGCU
RNA 2: AGCUGCUCUCUGGCU
modifications: 4-thio-2'-deoxythymidine at U25 (nt 10) [10 (strand 1, 4-thio-2'-deoxythymidine)]
IC50 [11]: 12 nM
